These results are taken from US20250066476A1 (TENEOONE, published 2025).

T1: human B-cell maturation antigen (BCMA) (human, UniProt Q02223 1-54, limits assumed)
T1 construct: also called CD269; TNFRSF17
T1 sequence (looked up): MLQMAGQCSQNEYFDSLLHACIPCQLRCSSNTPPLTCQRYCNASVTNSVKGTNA

B1: anti-PSMA heavy-chain antibody clone ID 346172 (antibody, V domains shown)
VH: QLQLQESGPGLVKPSETLSLTCTVSGGSISSSSYYWGWIRQPPGKGLEWIGSIDYSGYTYYNPSLKSRVTISVDTSKNQFSLKLSSVTAADTAVYNCARHKAATADFDYRGQGTLVTVSS
notes: heavy chain-only antibody (UniAb/HCAb)
B2: anti-PSMA heavy-chain antibody clone ID 325920 (antibody, V domains shown)
VH: B1 VH with K66Q
notes: as for B1
B3: anti-PSMA heavy-chain antibody clone ID 346165 (antibody, V domains shown)
VH: B1 VH with I53V, K66Q
notes: as for B1
B4: anti-PSMA heavy-chain antibody clone ID 326109 (antibody, V domains shown)
VH: B1 VH with S32N, P42S, I50L, D54Y, Y55D, Y58S, Y60H, T70I, V73G, N96Y
notes: as for B1
B5: anti-PSMA heavy-chain antibody clone ID 346181 (antibody, V domains shown)
VH: B1 VH with S33N, Y35F, P42S
notes: as for B1
B6: anti-PSMA heavy-chain antibody clone ID 325748 (antibody, V domains shown)
VH: QVQLVESGGGVVQPGRSLRLSCAASGFSFSSYGMHWVRQAPGKGLEGVAVIWYDGSNRYYADSVKGRFTISRDNSKNTLYLQMNSLRAEDTAVYYCAREPRIGYYYESSGYYSLDYRGQGTLVTVSS
notes: as for B1
B7: anti-PSMA heavy-chain antibody clone ID 325932 (antibody, V domains shown)
VH: B6 VH
notes: as for B1
B8: anti-PSMA heavy-chain antibody clone ID 325742 (antibody, V domains shown)
VH: B6 VH with G47W, R58K, N74Y, Y112D
notes: as for B1
B9: anti-PSMA heavy-chain antibody clone ID 326116 (antibody, V domains shown)
VH: B6 VH with S31R, W52S, R58K, N74Y, E107D, Y112D
notes: as for B1
B10: anti-PSMA heavy-chain antibody clone ID 345485 (antibody, V domains shown)
VH: B6 VH with S30R, G47W, R58K, L79M
notes: as for B1
B11: anti-PSMA heavy-chain antibody clone ID 345482 (antibody, V domains shown)
VH: B6 VH with N74S
notes: as for B1
B12: anti-PSMA heavy-chain antibody clone ID 345421 (antibody, V domains shown)
VH: B6 VH with G8V
notes: as for B1
B13: anti-PSMA heavy-chain antibody clone ID 345509 (antibody, V domains shown)
VH: B6 VH with V11L, R16G, R58K, L79M
notes: as for B1
B14: anti-PSMA heavy-chain antibody clone ID 345508 (antibody, V domains shown)
VH: B6 VH with L45P, G47W
notes: as for B1
B15: anti-PSMA heavy-chain antibody clone ID 345461 (antibody, V domains shown)
VH: B6 VH with S30T
notes: as for B1
B16: anti-PSMA heavy-chain antibody clone ID 345480 (antibody, V domains shown)
VH: B6 VH with G47W
notes: as for B1
B17: anti-PSMA heavy-chain antibody clone ID 345443 (antibody, V domains shown)
VH: B6 VH with Y80F
notes: as for B1
B18: anti-PSMA heavy-chain antibody clone ID 326084 (antibody, V domains shown)
VH: B6 VH with E107D
notes: as for B1
B19: anti-PSMA heavy-chain antibody clone ID 325836 (antibody, V domains shown)
VH: B6 VH with S30R, G47W, R58K, N74Y, E107D, Y112D
notes: as for B1
B20: anti-PSMA heavy-chain antibody clone ID 345447 (antibody, V domains shown)
VH: B6 VH with W52S
notes: as for B1
B21: anti-PSMA heavy-chain antibody clone ID 345505 (antibody, V domains shown)
VH: B6 VH with S28T, S30I
notes: as for B1
B22: anti-PSMA heavy-chain antibody clone ID 345444 (antibody, V domains shown)
VH: B6 VH with S28T
notes: as for B1
B23: anti-PSMA heavy-chain antibody clone ID 345490 (antibody, V domains shown)
VH: B6 VH with V11L, Q13K, R16G
notes: as for B1
B24: anti-PSMA heavy-chain antibody clone ID 345493 (antibody, V domains shown)
VH: B6 VH with S31R, G47W
notes: as for B1
B25: anti-PSMA heavy-chain antibody clone ID 325867 (antibody, V domains shown)
VH: B6 VH with S30R, G47W, R58K, N74Y, Y112D
notes: as for B1
B26: anti-PSMA heavy-chain antibody clone ID 326029 (antibody, V domains shown)
VH: B6 VH with S31R, G47W, W52S, R58K, I102V, S108T
notes: as for B1
B27: anti-PSMA heavy-chain antibody clone ID 326028 (antibody, V domains shown)
VH: B6 VH with S30R, G47W, W52S, R58K, N74Y, E107D, Y112D
notes: as for B1
B28: anti-PSMA heavy-chain antibody clone ID 345510 (antibody, V domains shown)
VH: B6 VH with G47W, R58K, L79M
notes: as for B1
B29: anti-PSMA heavy-chain antibody clone ID 345497 (antibody, V domains shown)
VH: B6 VH with S31R
notes: heavy chain-only antibody (UniAb/HCAb); also called HCAb 345497
B30: anti-PSMA heavy-chain antibody clone ID 345438 (antibody, V domains shown)
VH: B6 VH with L45P, G47W, R58K
notes: as for B1
B31: anti-PSMA heavy-chain antibody clone ID 326087 (antibody, V domains shown)
VH: B6 VH with S28I, S30R, L45P, G47W, R58K, E107D, Y112D
notes: as for B1
B32: anti-PSMA heavy-chain antibody clone ID 326027 (antibody, V domains shown)
VH: B6 VH with S30R, G47W, R58K, E107D, Y112D
notes: as for B1
B33: anti-PSMA heavy-chain antibody clone ID 345463 (antibody, V domains shown)
VH: B6 VH with S28I, S30R, L45P, G47W, R58K
notes: as for B1
B34: anti-PSMA heavy-chain antibody clone ID 325940 (antibody, V domains shown)
VH: B6 VH with S28I, S30R, L45P, G47W, R58K
notes: as for B1
B35: anti-PSMA heavy-chain antibody clone ID 345436 (antibody, V domains shown)
VH: B6 VH with S31R, R58K
notes: as for B1
B36: anti-BCMA heavy chain antibody clone ID 308837 (antibody, V domains shown)
VH: EVQLLESGGGLVQPGGSLRLSCAASGFTVSSYGMSWVRQAPGKGPEWVSGIRGSDGSTYYADSVKGRFTISRDNATNTLYLQMNSLRAEDTAVYYCAKQGGNDGPFDYRGQGTLVTVSS
notes: heavy chain-only antibody (UniAb)
B37: anti-BCMA heavy chain antibody clone ID 308902 (antibody, V domains shown)
VH: B36 VH with A75S, T76K, G101E, Y108H
notes: as for B36
B38: anti-BCMA heavy chain antibody clone ID 308806 (antibody, V domains shown)
VH: B36 VH with V29I, P45V, S57T, N74S, A75S, T76R, Y108H
notes: as for B36
B39: anti-BCMA heavy chain antibody clone ID 308635 (antibody, V domains shown)
VH: B36 VH with P14A, A75S, T76K, Y95H, G101E
notes: as for B36
B40: anti-BCMA heavy chain antibody clone ID 308912 (antibody, V domains shown)
VH: B36 VH with A40P, P45M, T76K
notes: as for B36
B41: anti-BCMA heavy chain antibody clone ID 308636 (antibody, V domains shown)
VH: B36 VH with L4V, A40P, P45M, Y59F
notes: as for B36

Numbering of substitutions follows the chain as printed.

The target of one assay is T2, human PSMA (Prostate Specific Membrane Antigen, Glutamate Carboxypeptidase II) (human, UniProt Q04609 1-750).
T2 construct: whole, on cells; the cell line is named under assay; also called FOLH1
T2 sequence (Q04609 whole entry): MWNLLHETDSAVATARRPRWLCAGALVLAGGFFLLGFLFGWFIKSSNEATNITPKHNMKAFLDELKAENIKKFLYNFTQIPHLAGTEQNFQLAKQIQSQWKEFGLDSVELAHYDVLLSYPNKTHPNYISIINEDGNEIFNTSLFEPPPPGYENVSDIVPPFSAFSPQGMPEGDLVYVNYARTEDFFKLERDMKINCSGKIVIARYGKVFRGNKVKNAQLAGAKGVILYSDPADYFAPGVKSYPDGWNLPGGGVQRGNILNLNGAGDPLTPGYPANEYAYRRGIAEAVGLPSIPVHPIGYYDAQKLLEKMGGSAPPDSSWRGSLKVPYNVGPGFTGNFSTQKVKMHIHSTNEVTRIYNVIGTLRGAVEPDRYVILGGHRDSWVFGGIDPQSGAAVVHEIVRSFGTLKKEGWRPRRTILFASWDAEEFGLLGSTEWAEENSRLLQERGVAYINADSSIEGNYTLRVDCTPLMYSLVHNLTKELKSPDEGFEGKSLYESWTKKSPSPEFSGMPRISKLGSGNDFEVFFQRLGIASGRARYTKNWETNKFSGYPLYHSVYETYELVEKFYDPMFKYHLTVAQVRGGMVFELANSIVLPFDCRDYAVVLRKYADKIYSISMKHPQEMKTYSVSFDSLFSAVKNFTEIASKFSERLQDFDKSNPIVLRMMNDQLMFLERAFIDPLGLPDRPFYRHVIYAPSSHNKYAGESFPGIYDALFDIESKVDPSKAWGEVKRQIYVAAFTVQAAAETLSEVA
The assay is described as follows: flow cytometry on LNCaP cells. Here is the method:
Briefly, 50,000 target cells were stained with a dilution series of purified UniAbs™ for 30 minutes at 4° C. Following incubation, the cells were washed twice with flow cytometry buffer (1×PBS, 1% BSA, 0.1% NaN₃) and stained with goat F(ab′)₂ anti-human IgG conjugated to R-phycoerythrin (PE) (Southern Biotech, cat. #2042-09) to detect cell-bound antibodies. After a 20-minute incubation at 4° C., the cells were washed twice with flow cytometry buffer and the mean fluorescence intensity (MFI) was measured by flow cytometry. The MFI of cells stained with secondary antibody alone were used for determination of background signal and binding of each antibody was converted to fold over background. Binding to cynomolgus PSMA positive cells was determined using the same protocol with the following modifications: the target cells were from Freestyle 293-F cells (ThermoFisher R79007) transiently transfected to express the extracellular domain of cynomolgus PSMA. In some experiments EC50 values were calculated using GraphPad Prism 7.
Column 1 indicates the clone ID of the HCAb. Column 2 indicates binding to LNCaP cells measured as fold over the background MFI signal.
Consider B1, for which the “fold over the background MFI signal” value worked out at 216 fold over background MFI.

Turning to B2, the “fold over the background MFI signal” value came out at 282 fold over background MFI.

Consider B3, for which the “fold over the background MFI signal” value came out at 243 fold over background MFI.

As to B4, the “fold over the background MFI signal” value was 25 fold over background MFI.

As for B5, the “fold over the background MFI signal” value stood at 264 fold over background MFI.

Turning to B6, the “fold over the background MFI signal” value worked out at 193 fold over background MFI.

Regarding B7, the “fold over the background MFI signal” value turned out to be 64 fold over background MFI.

As for B8, the “fold over the background MFI signal” value was found to be 200 fold over background MFI.

For the molecule B9, the “fold over the background MFI signal” value amounted to 38 fold over background MFI.

Regarding B10, the “fold over the background MFI signal” value was 71 fold over background MFI.

For the molecule B11, the “fold over the background MFI signal” value is 80 fold over background MFI.

In the case of B12, the “fold over the background MFI signal” value worked out at 22 fold over background MFI.

As for B13, the “fold over the background MFI signal” value was 37 fold over background MFI.

Consider B14, for which the “fold over the background MFI signal” value amounted to 55 fold over background MFI.

Turning to B15, the “fold over the background MFI signal” value was 102 fold over background MFI.

On to B16, for which the “fold over the background MFI signal” value worked out at 47 fold over background MFI.

Take B17: the “fold over the background MFI signal” value worked out at 84 fold over background MFI.

As for B18, the “fold over the background MFI signal” value was 125 fold over background MFI.

In the case of B19, the “fold over the background MFI signal” value amounted to 163 fold over background MFI.

For the molecule B20, the “fold over the background MFI signal” value came to 14 fold over background MFI.

Take B21: the “fold over the background MFI signal” value came out at 59 fold over background MFI.

For B22, the “fold over the background MFI signal” value was 23 fold over background MFI.

For the molecule B23, the “fold over the background MFI signal” value was determined as 80 fold over background MFI.

B24: the “fold over the background MFI signal” value worked out at 101 fold over background MFI.

For the molecule B25, the “fold over the background MFI signal” value worked out at 210 fold over background MFI.

As to B26, the “fold over the background MFI signal” value was found to be 109 fold over background MFI.

Turning to B27, the “fold over the background MFI signal” value turned out to be 117 fold over background MFI.

As for B28, the “fold over the background MFI signal” value came to 13 fold over background MFI.

On to B29, for which the “fold over the background MFI signal” value came out at 112 fold over background MFI.

Turning to B30, the “fold over the background MFI signal” value is 13 fold over background MFI.

Regarding B31, the “fold over the background MFI signal” value turned out to be 129 fold over background MFI.

On to B32, for which the “fold over the background MFI signal” value turned out to be 138 fold over background MFI.

In the case of B33, the “fold over the background MFI signal” value was 68 fold over background MFI.

On to B34, for which the “fold over the background MFI signal” value was 169 fold over background MFI.

For the molecule B35, the “fold over the background MFI signal” value was determined as 87 fold over background MFI.

In the next assay the target is T1, human B-cell maturation antigen (BCMA). Briefly: ELISA protein and cell-binding assays. On the technique in general: In an ELISA, binding on a coated surface is turned into a signal by an enzyme label.
For B36, the binding result is given as “binds”.

On to B37, for which the binding result was “binds”.

In the case of B38, the binding result is “binds”.

Regarding B39, the binding result is “binds”.

B40: the binding result is “binds”.

Consider B41, for which the binding result is listed as “binds”.
